According to publication PMC9352680, “A comprehensive thermodynamic model for RNA binding by the Saccharomyces cerevisiae Pumilio protein PUF4”:
Where a chain is given by its changes, count along the chain named. Names may count otherwise.

T1: PUF4 RNA-binding domain (Saccharomyces cerevisiae, UniProt P25339 537-888)
T1 sequence: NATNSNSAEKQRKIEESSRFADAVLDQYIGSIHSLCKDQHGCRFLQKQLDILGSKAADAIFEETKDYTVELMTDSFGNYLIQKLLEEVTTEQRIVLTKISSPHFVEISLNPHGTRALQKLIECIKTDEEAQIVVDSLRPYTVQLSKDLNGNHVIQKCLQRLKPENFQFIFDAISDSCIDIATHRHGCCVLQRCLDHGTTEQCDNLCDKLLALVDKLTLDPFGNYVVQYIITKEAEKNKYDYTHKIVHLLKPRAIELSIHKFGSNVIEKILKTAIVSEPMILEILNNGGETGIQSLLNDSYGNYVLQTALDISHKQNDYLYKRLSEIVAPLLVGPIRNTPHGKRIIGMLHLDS

B1: Id_ii_S2_P4E.4_K4.3_C4.2_[C-2T]_[T-1C]_H4.3_A4.1_F4.1_T4.2_[G10C] (ssRNA)
RNA: UUUGAUUAAUAUGAUAUCGUUCUUUCUUCACACUAUUACUUUCUUUCUCGAUAUCAUAUUAAUCUUU
B2: Id_ii_S2_P4E.4_K4.3_C4.2_[C-2A]_H4.3_A4.1_F4.1_T4.2_[G10C]_[T11G] (ssRNA)
RNA: B1 RNA with U28A, C29U, U40G
B3: Id_ii_S2_P4E.4_K4.3_C4.2_[C-2T]_[T-1A]_H4.3_A4.1_F4.1_T4.2 (ssRNA)
RNA: B1 RNA with C29A, C39G
B4: Id_ii_S2_P4E.4_K4.3_C4.2_[C-2T]_H4.3_A4.1_F4.1_T4.2_[G10C]_[T11C] (ssRNA)
RNA: B1 RNA with C29U, U40C
B5: Id_ii_S2_P4E.4_K4.3_C4.2_[C-2G]_H4.3_A4.1_F4.1_T4.2_[G10A] (ssRNA)
RNA: B1 RNA with U28G, C29U, C39A
B6: Id_ii_S2_P4E.4_K4.3_C4.2_[C-2A]_[T-1C]_H4.3_A4.1_F4.1_T4.2_[G10T]_[T11C] (ssRNA)
RNA: B1 RNA with U28A, C39U, U40C
B7: Id_ii_S2_P4E.3_K4.2_C4.2_[T-1A]_H4.2_A4.1_F4.1_T4.2_[G10A]_[T11G] (ssRNA)
RNA: B1 RNA with U28C, C29A, A30U, C31A, A32U, C33A, C39A, U40G
B8: Id_ii_S2_P4E.4_K4.3_C4.2_[C-2A]_[T-1A]_H4.3_A4.1_F4.1_T4.2_[G10C] (ssRNA)
RNA: B1 RNA with U28A, C29A
B9: Id_ii_S2_P4E.4_K4.3_C4.2_[C-2A]_[T-1A]_H4.3_A4.1_F4.1_T4.2_[G10C]_[T11C] (ssRNA)
RNA: B1 RNA with U28A, C29A, U40C
B10: Id_ii_S2_P4E.3_K4.2_C4.2_H4.2_A4.1_F4.1_T4.2_[G10T] (ssRNA)
RNA: B1 RNA with U28C, C29U, A30U, C31A, A32U, C33A, C39U
B11: Id_ii_S2_P4E.3_K4.2_C4.2_H4.2_A4.1_F4.1_T4.2_[G10T]_[T11C] (ssRNA)
RNA: B1 RNA with U28C, C29U, A30U, C31A, A32U, C33A, C39U, U40C
B12: Id_ii_S2_P4E.4_K4.3_C4.2_[C-2T]_H4.3_A4.1_F4.1_T4.2_[G10A] (ssRNA)
RNA: B1 RNA with C29U, C39A
B13: Id_ii_S2_P4E.3_K4.2_C4.2_[T-1A]_H4.2_A4.1_F4.1_T4.2_[T11G] (ssRNA)
RNA: B1 RNA with U28C, C29A, A30U, C31A, A32U, C33A, C39G, U40G
B14: Id_ii_S2_P4E.4_K4.3_C4.2_[C-2A]_H4.3_A4.1_F4.1_T4.2_[G10C]_[T11C] (ssRNA)
RNA: B1 RNA with U28A, C29U, U40C
B15: Id_ii_S2_P4E.3_K4.2_C4.2_H4.2_A4.1_F4.1_T4.2_[G10C]_[T11A] (ssRNA)
RNA: B1 RNA with U28C, C29U, A30U, C31A, A32U, C33A, U40A
B16: Id_ii_S2_P4E.4_K4.3_C4.2_[C-2A]_H4.3_A4.1_F4.1_T4.2_[G10T]_[T11C] (ssRNA)
RNA: B1 RNA with U28A, C29U, C39U, U40C
B17: Id_ii_S2_P4E.3_K4.2_C4.2_[T-1A]_H4.2_A4.1_F4.1_T4.2 (ssRNA)
RNA: B1 RNA with U28C, C29A, A30U, C31A, A32U, C33A, C39G
B18: Id_ii_S2_P4E.4_K4.3_C4.2_[C-2A]_H4.3_A4.1_F4.1_T4.2_[G10C] (ssRNA)
RNA: B1 RNA with U28A, C29U
B19: Id_ii_S2_P4E.4_K4.3_C4.2_[C-2G]_H4.3_A4.1_F4.1_T4.2_[G10A]_[T11C] (ssRNA)
RNA: B1 RNA with U28G, C29U, C39A, U40C
B20: Id_ii_S2_P4E.4_K4.3_C4.2_[C-2G]_H4.3_A4.1_F4.1_T4.2_[G10A]_[T11A] (ssRNA)
RNA: B1 RNA with U28G, C29U, C39A, U40A
B21: Id_ii_S2_P4E.3_K4.2_C4.2_H4.2_A4.1_F4.1_T4.2_[G10C]_[T11G] (ssRNA)
RNA: B1 RNA with U28C, C29U, A30U, C31A, A32U, C33A, U40G
B22: Id_ii_S2_P4E.4_K4.3_C4.2_[C-2A]_[T-1A]_H4.3_A4.1_F4.1_T4.2_[G10T]_[T11C] (ssRNA)
RNA: B1 RNA with U28A, C29A, C39U, U40C
B23: Id_ii_S2_P4E.4_K4.3_C4.2_[C-2T]_H4.3_A4.1_F4.1_T4.2_[G10A]_[T11C] (ssRNA)
RNA: B1 RNA with C29U, C39A, U40C
B24: If_S2_P4E.3_K4.2_C4.2_H4.2_A4.1_F4.1_T4.2 (ssRNA)
RNA: B1 RNA with U28C, C29U, A30U, C31A, A32U, C33A, C39G

Biological target: T1, PUF4 RNA-binding domain
Test: Mg; RNA-MaP; 20 mM Na-HEPES pH 7.4, 30 mM KOAc, 0.75 mM MgCl2, 0.1% Tween-20, 5% glycerol, 0.1 mg/mL BSA, 2 mM DTT; 25 C; 0.0125-409.6 nM protein
Conditions: tags: N-His6-TEV cleaved; C-SNAP kept, Cy3B-labelled; label: tethered on chip by stalled RNA polymerase

Row | Binder | Kd [nM]
1 | B1 | > 2300
2 | B2 | 47.6
3 | B3 | > 2300
4 | B4 | 306
5 | B5 | 0.412
6 | B6 | > 2300
7 | B7 | 360
8 | B8 | > 2300
9 | B9 | > 2300
10 | B10 | 3.81
11 | B11 | 4.61
12 | B12 | 445
13 | B13 | 46.4
14 | B14 | 10.8
15 | B15 | 8.35
16 | B16 | 10.3
17 | B17 | 8.89
18 | B18 | 9.11
19 | B19 | 0.5
20 | B20 | 0.354
21 | B21 | 18.8
22 | B22 | > 2300
23 | B23 | 305
24 | B24 | 10.4
25 | UCUCUUUGUUUUAUUCUCUCUU (ssRNA) [Ib_S1_P5E.1_K5.1_C5.1_H5.1_[A4T]_A5.1_F5.1_[A10C]_T5.1] | 899
26 | UCUCUUUGUUUUAUUUUCUCUU (ssRNA) [Ib_S1_P5E.1_K5.1_C5.1_H5.1_[A4T]_A5.1_F5.1_[A10T]_T5.1] | 864
27 | UCUCUUUGCAUUAUUAUCUCUU (ssRNA) [Ia_S1_P5E.1_K5.1_C5.1_H5.1_[T3C]_A5.1_F5.1_T5.1] | 1250
28 | UCUCUUUGUCUUAUUUUCUCUU (ssRNA) [Ib_S1_P5E.1_K5.1_C5.1_H5.1_[A4C]_A5.1_F5.1_[A10T]_T5.1] | 775
29 | UCUCUUUGUACUAGUAUCUCUU (ssRNA) [Ib_S1_P5E.1_K5.1_C5.1_H5.1_A5.1_[T5C]_F5.1_[T8G]_T5.1] | 23.5
